Reference: the nanobody polyreactivity screen of Harvey et al. (2022)

Experiment: yeast display, Sf9 membrane polyspecificity reagent, FACS + sequencing; frameworks hold sequencing errors
Outline: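 Nanobodies came from a synthetic yeast display library in Saccharomyces cerevisiae BJ5465, induced with galactose for 36–48 hours and stained for 1 hour at 4 °C with 10% biotinylated, detergent-solubilized Sf9 membrane reagent. Cells were enriched on streptavidin microbeads and then FACS-sorted, with low and high (top ~1%) gates set on anti-HA fluorescence for expression and streptavidin fluorescence for reagent binding. Each polyreactivity label reflects the gate a clone came from. Genes were amplified by colony PCR, sequenced by MiSeq 2 × 250 and filtered by CDR length.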

| Sequence | polyreactivity (PSR sort gate) |
| --- | --- |
| QVQLVESGGGLVQAGGSLRLSCAASGTIFQENAMGWYRQAPGKERELVAAITGSGDSTYYADSVKGRFTISRDNAKNTVYLQMNSLKPEDTAVYYCAASWHTPTVYDEYYYWGQGTQVTVSS | low polyreactivity |
| QVQLVESGGGLVQAGGSLRLSCAASGNILFYNAMGWYRQAPGKERELVAAISRSAGSTYYADSVKGRFTISRDNAKNTVYLQMNSLKPEDTAVYYCAAQYFRRSVYWGQGTQVTVSS | high polyreactivity |
| QVQLVQSGGGLVQAGGILRLSCAASGRTFSTNAMGRYIQAPGKERQLVAAITYGSSSTYYADSVKGRFTISRDNAKNTVYFKMNCLKPEDTAVYDCAAGGFFTHRRTYGYWGQGTQVTVSS | high polyreactivity |
| QVQLVESGGGLVQAGGSLRLSCAASGSIFKTNAMGWYRQAPGKERELVAGISNGGSTNYADSVKGRFTISRDNAKNTVYLQMNSLKPEDTAVYYCATDFAVTKMEYWGQGTQVTVSS | low polyreactivity |
| QVQLVESGGGLVQAGGSLRLSCAASGLIFSRNAMGWNRPAPGKERELVAAISTGGSTYYADSVKGRFTISRDNAKNTVYLQMNRLKPVDTAVYYCAAAPGYIYEYWGQGTQVTVSS | low polyreactivity |
| QVQLVESGGGLVQAGGSLRLSCASSGFTLYANAMGWYRQAPGKERELVADISESGSSTSYADSVKGRFTISRDNAKNTVYLQMKSLKPEDTAVYYCYDYWVQGTQVTVSS | low polyreactivity |
| QVQLVESGGGLVQAGGSLRLTCAASGITFKFYAMGWYRQAPGKESELVAAITSGGGSTYYADSVKGRFTISRDNAKNTVYLQMNILKPEDTAVYYCNTYSIAYYSPCYDYWGQGTQVNVSS | high polyreactivity |
| QVQLVESGGGLVQAGGSLRLSCAASGRIFQKNAMGWYRQAPGKERELVAAISGSGSTTNYADSVKGRFTISRDNAKNTVYLQLNSLTPEDTAVYYCATGKRGVSGRGFRYDYWGQGTQVTVSS | high polyreactivity |
| QVQLVESGGGLVQAGGSLRLSCAASGITFDYYDMGWYRQAPGKERELVATITSDGSTYYADSVKGRFTISRDNAKNTVYLQMNSLKPEDTAVYYCNARRRTVPYRYDYWGQGTQVTVSS | high polyreactivity |
| QVQLVESGGGLVQAGGSLRLSCAASGNIFRPYTMGWYRQAPGKERELVARISSGGSTNYADSVKGRFTISRDNGKYTDYFQLNSLKPEVTAVYYWSKRYGTVLSRYGYLGQGTQVTVSS | high polyreactivity |
| QVQLVESGGRLVQAGGSLRLICAASGITYYEYAMGWYRQAPGKERELVAAITSGGTTNYADSVNGRFTISLDNAKNTVYLQMNSLKPEDTAVYFCAADLIGYSYPDEYYGKGEYDYWGQGTQVTVSS | low polyreactivity |
| QVQLEESGGGLVQAGGRLRLSCAASGRTITRNAMGWYRQAPGKERELVAAISSRGGSTSYADSVKGRFTISRDNAKNTFYLQMNSLKPEDTAVYYCNKKTAASDYDYWGQGTQVTVSS | high polyreactivity |
| QVQLVESGGGLVQAGGSLRISCAASGIILGYYPMGWYRQAPGKERELVAAINWSGASTYYADSVKGRFTISRDNAKNTVYLQMNCLKPEDTAVYDCNAVGYYYRGTGEYDYWGQGTQVTVSS | high polyreactivity |
| QVQLVESGGGLVQAGGSLRLSCAASGRIFYYYDMGWNRQAPGQERELVAAISFSDGITYYADSVKGRFTISRDNAKNTVYLQMNSLKPEDTAVYYCAAVYRYRNRREYDYWGQGTEVTVSS | high polyreactivity |
| QVQLVESAGGLVQAGGSLRLSCAASGRTFVHYAIGWYRPAPAKERELVAAISWSGGSTYYADSVKGRFTISRDNAKNTGYLQMNSLKPEDTAVYYCNAGGFAPGRYGEFDYWGQGTQVTVSS | low polyreactivity |
| QVQLVESGGGLVQAGGSLRLSCAASGLIFYDNMGWYRQAPGKERELVAAISSSGGSTSYADSVKGRFTISRDNAKNTVYLQMNSLKPEDTAVYDSAADSYPAYLGFVGFDYWGQGTQVTVSS | low polyreactivity |
| QVQLGESGGGLVQAGGSLRLSCAASGLIFPRYAMGWYRQAPGKERELVAAITRGGSTYYADSVKGRFTISRDNAKNTVYVQMNSLKPEDSAVYYCNDELPVHWSWYDYWGQGTQVTVSS | low polyreactivity |
| QVQLVESGGGLVQAGGSLRLSCAASGRTLDKYTMGGYRQAPGKERELVASITSGGSTNYADSVKGRFTISRDNAKNTVYLQMNSLKPEDTAVYYCASGNWVLWNPGYDYWGQGTQVTVSS | low polyreactivity |
| QVQLVESGGGLVKAGGSLRLSCAASGNTFGRNVMGWYRPAPGKERELVAAINRGGSTTYADSVKGRFTISRDNAKNTVYLQMNSLKPEDTAVYYCNAEIRGQSYRFDYWGQGTQVTVSS | high polyreactivity |
| QVQLVESGGGLVQAGGSLRLSCAASGIIFRYYAMGWYRQAPGKEREFVAAISSSGVRTYYADSVKGRFTISRDNAKNTVYLQMNSLKPEDTAVYYCAAASRANSYRYNYWGQGTQVTVSS | high polyreactivity |
| QVQLVESGGGLVQAGGSLRLSCAASGRISLSNAMGWYRQAPGKEREFVAAITKRSDRTYYADSVKGRFTISRDNAKNTVYLQMNSLKPEDTAVYYCAAKPLFGTRDEYWGQGTQVTVSS | low polyreactivity |
| QVQLVESGGGLVQAGGSLRLSCAASGYIFGSYVMGWYRQAPGKERELVAAITRIGASTYYADSVKGRFTISRDNAKNNVYLQMNSLKPEDTAVYYCATDQGGYYENDYWGQGNQVTVSS | low polyreactivity |

| Sequence | polyreactivity (PSR sort gate) |
| --- | --- |
| QVQQQESGGGLVQAGGSQRLSCAASGTSLNSLCMGWYRQAPGKRREFVASITWGTTTNYAESVKGRFTISRDNANNTVYPQMNSLKPEDTAVYYCAAPPFGDSSYHYWGQGTQVTVSS | low polyreactivity |
| QVQLVESGGGLVQAGGSLRLSCAASGSIFLSYAMGWYRQAPGKERELVAAISRRGVRTYYADSVKGRFTISRDNAKNTVYLQMNSLKPEDTAVYYCAKDAYFPPWTYGSIFGLYDYWGQGTQVTVSS | low polyreactivity |
| QVQLVESGVGLVQAGGTLRLSCAASGITFLQYAMGWYRQAPGKERELVAGITRSGGAGTYYADSVKGRFTISRDNAKNTVYLQMNSLKPEDTAVYYCAAETDTPSLYQDMYYWGQGTQVTVSS | high polyreactivity |
| QVQLVESGGGLVQAGGSLRLSCAASGSTFQGNAMGWYRQAPGKERELVAAISKRGGSTYYADSVKGRFTISRDNAKNTVYLQMNSLKPEDTAVYFCNAKLFASRGYYFGGAYQYGYWGQGTQVTVSS | high polyreactivity |
| HDQLVESGGGLVQAGGSLRLSCAASGNTFIYYAMGWYRQAPGKEREMVAAISRSGGSTYYADSVKGRFTISRDNAKNTVYLQMNSLKPEDTAVYYCAAEATKWIGVVTMDYWGQGTQVTVSS | high polyreactivity |
| QVQLVESGGGLVQAGGSLRLSCAASGSIFRAYAMGWYRQAPGKERELVAGITKSGGSTYYADSVKGRFTISRDNAKNTVYLQMNILKPEDTAVYYCAAYRSRTYGYWGQGTQVTVSS | high polyreactivity |
| QVQLVESGGGLVQAGGSLRLTSAASGRIFYNYAIGWYRQAPGKERELVAAISSSGGSTYYADSVKGRFTISRDNAKNTVYVQMNSLKPEDTAVYYCAAYSYGLYYTYDYWGQGTQVTVSS | high polyreactivity |
| QVQLVESGGGLVQAGGSLRLSCAASGRIFVDNAMGWYRQAPGKERELVATITSTGSTNYADSVKGRFTISRDNAKNTVYLQMNSLKPEDTAVYYCADGYYPYWGQGTQVTVSS | low polyreactivity |
| QVQLVESGGGLVQAGGSLRLSCAASGRIFYAYAMGWYRQAPGKERELVARISYSGGNTYYADSVKGRFTISRDNAKNTVYLQMNSQKPEDTAVYYCNTDYRARFGYWGQGTQVTVSS | high polyreactivity |
| QVQLVESGGGLVQAGGSLRLSCAASGLNFYYYAMGWYRQAPGKESELVAAISGGGSTYYADSVKGRFTISRDNAKNTVYLQMNSLKPEDTAVYYCAASYWYPSWLYDYWGQGTQVTVSS | low polyreactivity |
| QVQLVESGGGLVQAGGSLRLSCAASGITFEVYAMGWYRQAPGKERELVAVITSVGSTNYADSVKGRFTISRDNAKNTVYLQMNSLKPEDTAVYYCASEKWTVRRFNPYTYYRYDYWGQGTQVTVSS | low polyreactivity |
| QVQLVESGGGLVQAGGSLRLSCAASGSIFPGNALGWYRQAPGKERELVAVIDFSGASTYYADSVKGRFTISRDNAKNTVYLQMNRLKPEDTADYWGQGTQVTVSS | low polyreactivity |
| QVQLVESGGGLVQAGGSLRLICAASGSTIGSYVMGWYRTAPGKERELVAAITSGARTNYADSVKGRFTISRDNAKNTVYLQMNSLKPEDTAVYYCAKYYRPAYVYRIAGYYWGQGTQVTVSS | high polyreactivity |
| QVQLVESGGGLVQAGGSLRLSCAASGSIFGGYTMGWYRQAPGKERELVAAISARGGNTYYADSVKGRFTISRDNAKNTVYLQMNSLKPEDTAVYYCAKVRYTQSYRVYGYWGQGTQVTVSS | high polyreactivity |
| QVQLVESGGGLVQAGGSLRLSCAASGFIFYPYAMGWYRQAPGKERELVAAITWSGSRTYYADSVKGRFTISRDNAKHTVYLQMNSLKPEDTAVYYCNKYPQPTAYDYWGQGTQVTVSS | high polyreactivity |
| QVQLVESGGGLVQAGGSLRLSCAASGSIFYDNAMGWYRQAPGKERELVASIRYSGVRTYYADSVKGRFTISRDNAKNTVYLQMNSLKPEDTAVYYCAADVYRQFYPFKSDYWGQGTQVTVSS | high polyreactivity |
| KVQLVESGGGLVHAGGSLRLSCAASGRIIYYYAMGWYRTAPGKERELVAAISGRGTSTYYADSVKGRFTISRDNAKNTVYLKMNSLKPEDTAVYYCAARYYYWGQGTQVTVSS | high polyreactivity |
| QVHLVESCGGLVQAGGSLRLSCAASGSTFTYNVMGSYRQAPGKERELVAAISWSGGSTFYADSVKGRFTISRDNAKNTVYLQMNSLKPEDTAVYYCNKDHLVYPSEFYYWGQGTQVTVSS | low polyreactivity |
| QVQLVESGGGLVQAGGSLRLSCAASGIIFRLYAMGWYRQAPGKERELVAAITSRGGSTYYADSVKGRFTISRDNAKNTVYLQKNSLKPEDTAVYYCAARPVYSGYDYWGQGPQVTVSS | high polyreactivity |
| QVQLVESGGGLVQAGGSLRLSCAASGFTFNRYAMGWYRQAPGKERELVAAISWSGTSTYYADSVKGRFTISRDNAKNTVYLQMNSLKPEDTAVYYCATRQTHSYDYWGQGTQVTVSS | high polyreactivity |
| QVQLVESGGGLVQAGGSLRLSSAASGFTFPVYAMGWYRPATGKESELVAAISRRGGRTYYADSVKGRFTISRDNAKNRVYLQMNCLKPEDSAVYYCNKGETLYGSVPYDYWGQGTQLTVSS | high polyreactivity |
